According to patent US20220412975:

What was measured:
[1] = tested on: (HiLyteFluor-488)-DELSSMVLELRGLRT-K(QXL520)-E-NH2
[2] = tested on: COMP1 candidate peptide, (Donor) GMQQSVRTGLPS (K-Quencher)
[3] = tested on: COMP2 candidate peptide, (Donor) SPGFRC(Acm)EAC(Acm)PPGYS (K-Quencher)
[4] = tested on: TSP1-1 substrate, (HiLyteFluor-488)-DELSSMVLELRGLRT-K(QXL520)-NH2
[5] = tested on: TSP1-2 substrate, (HiLyteFluor-488)-SSMVLELRGLRTIVT-K(QXL520)-NH2
[6] = tested on: TSP1-3 substrate, (HiLyteFluor-488)-KVTEENKELANELRR-K(QXL520)-NH2
[7] = tested on: TSP1-4 substrate, (HiLyteFluor-488)-EENKELANELRRPPL-K(QXL520)-NH2
[8] = tested on: TSP1-5 substrate, (HiLyteFluor-488)-SSMVLELRGLRT-K(QXL520)-NH2

Chain of rPro-hCD-FM2 (Rat 1-217/Human 237-537 FM2 (Q216K))-TEV-2Strep-6His (chain, as listed by the source Q216K): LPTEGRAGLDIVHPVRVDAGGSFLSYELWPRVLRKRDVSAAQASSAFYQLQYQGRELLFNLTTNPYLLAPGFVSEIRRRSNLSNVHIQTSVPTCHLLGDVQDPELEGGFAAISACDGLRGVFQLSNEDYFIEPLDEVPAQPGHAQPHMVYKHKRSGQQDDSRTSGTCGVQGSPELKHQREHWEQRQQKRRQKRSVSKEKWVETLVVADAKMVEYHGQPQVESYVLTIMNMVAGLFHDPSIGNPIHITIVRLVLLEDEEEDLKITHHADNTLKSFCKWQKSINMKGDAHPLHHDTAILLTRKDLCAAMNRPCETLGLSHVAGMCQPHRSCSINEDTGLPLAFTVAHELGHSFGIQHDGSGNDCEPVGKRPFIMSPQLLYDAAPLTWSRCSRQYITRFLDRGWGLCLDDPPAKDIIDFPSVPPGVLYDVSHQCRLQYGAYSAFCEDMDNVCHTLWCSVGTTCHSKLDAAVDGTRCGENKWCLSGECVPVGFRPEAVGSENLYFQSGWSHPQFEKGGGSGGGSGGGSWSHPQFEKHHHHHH
Chain of rPro-hCD (Rat 1-217/Human 237-537)-TEV-2Strep-6His (chain, as listed by the source): as the sequence (chain, as listed by the source Q216K) above, with K192Q counted along it

Substance | FRET peptide cleavage (increase of fluorescence intensity) [1] | FRET peptide cleavage (Relative Fluorescence Units over time) [2] | kcat [2] [s⁻¹] | FRET peptide cleavage (Relative Fluorescence Units over time) [3] | kcat [3] [s⁻¹] | FRET peptide cleavage (Relative Fluorescence Units over time) [4] | kcat [4] [s⁻¹] | FRET peptide cleavage (Relative Fluorescence Units over time) [5] | kcat [5] [s⁻¹] | FRET peptide cleavage (Relative Fluorescence Units over time) [6] | kcat [6] [s⁻¹] | FRET peptide cleavage (Relative Fluorescence Units over time) [7] | kcat [7] [s⁻¹] | FRET peptide cleavage (Relative Fluorescence Units over time) [8] | kcat [8] [s⁻¹]
rPro-hCD (Rat 1-217/Human 237-537)-TEV-2Strep-6His | It was surprisingly found that the same substrate could be used for the paralogs ADAMTS-7 and ADAMTS-12 | No activity was observed with COMP candidate peptides COMP1 | 1.22e-05 | No activity was observed with COMP candidate peptides COMP1 ... or COMP2 | 6.33e-06 | demonstrated the greatest specificity for the TSP1 S1 | 0.00035 | also cleaved the overlapping TSP1 S2 substrate | 5.33e-05 | No significant activity was detected at the defined ADAMTS1 cleavage site E311⬇L312 from TSP1 S3 | 2e-05 | No significant activity was detected at the defined ADAMTS1 cleavage site E311⬇L312 from TSP1 S3 ... or TSP1 S4 | 3.33e-05 | Activity was observed for the S5 substrate with ADAMTS-7 human catalytic domain constructs compared to buffer alone, however the removal of the amino DEL sequence greatly reduced the signal for activity compared to the 51 substrate | 3.33e-05
rPro-hCD-FM2 (Rat 1-217/Human 237-537 FM2 (Q216K))-TEV-2Strep-6His | It was surprisingly found that the same substrate could be used for the paralogs ADAMTS-7 and ADAMTS-12 | No activity was observed with COMP candidate peptides COMP1 | 1.27e-05 | No activity was observed with COMP candidate peptides COMP1 ... or COMP2 | 6.5e-06 | demonstrated the greatest specificity for the TSP1 S1 | 0.0004 | also cleaved the overlapping TSP1 S2 substrate | 4.83e-05 | No significant activity was detected at the defined ADAMTS1 cleavage site E311⬇L312 from TSP1 S3 | 2e-05 | No significant activity was detected at the defined ADAMTS1 cleavage site E311⬇L312 from TSP1 S3 ... or TSP1 S4 | 3.5e-05 | Activity was observed for the S5 substrate with ADAMTS-7 human catalytic domain constructs compared to buffer alone, however the removal of the amino DEL sequence greatly reduced the signal for activity compared to the 51 substrate | 3.5e-05
